The values below come from patent US20090311283A1.

Where two headings read alike, the source gives them in different places.

Assay [1] deals with HLA-A*0201 (human). Briefly: competition with 125I-labelled probe peptide for purified HLA, gel filtration.
For assay [2], the target named is HLA-A*0201 (human).
Assay [3] has as its target HLA-A*0301 (human). The experiment in a line: competition with 125I-labelled probe peptide for purified HLA, gel filtration.
The target in assay [4] is HLA-A*0201 (Human).
The mark [5] stands for this setting: remark: other sources report otherwise.

B1: HBV POL 20 peptide … (peptide)
peptide: PLEEELPRL
modifications: not checked
With B1, the binding affinity ratio (IC50 of standard peptide / IC50 of test peptide) in assay [1] amounted to 0.0003.

B2: HBV NUC 138 peptide … (peptide)
peptide: PILSTLPETTV
modifications: not checked
Consider B2, for which the binding affinity ratio (IC50 of standard peptide / IC50 of test peptide) in assay [1] stood at 0.0001.

B3: HBV POL 751 10-mer peptide … (peptide)
peptide: WLLGCAANWI
modifications: not checked
In the case of B3, the binding affinity ratio (IC50 of standard peptide / IC50 of test peptide) in assay [2] was 0.0053.

B4: HBV NUC 138 peptide … (peptide)
peptide: PILSTLPETT
modifications: not checked
For the molecule B4, the binding affinity ratio (IC50 of standard peptide / IC50 of test peptide) in assay [1] is 0.0001.

B5: HBV NUC 177 peptide … (peptide)
peptide: VVRRRGRSPR
modifications: not checked
Regarding B5, the binding affinity ratio (IC50 of standard peptide / IC50 of test peptide) (ratio to standard peptide) in assay [3] came out at 0.0027.

B6: HBV POL 20 peptide … (peptide)
peptide: PLEEELPRLA
modifications: not checked
On to B6, for which the binding affinity ratio (IC50 of standard peptide / IC50 of test peptide) in assay [1] is 0.0001.

B7: HBV NUC 123 peptide … (peptide)
peptide: GVWIRTPPA
modifications: not checked
As for B7, in assay [4], the binding affinity ratio (IC50 of standard peptide / IC50 of test peptide) stood at 0.003.

B8: HBV POL 768 peptide … (peptide)
peptide: YVPSALNPA
modifications: not checked
Take B8: the binding affinity ratio (IC50 of standard peptide / IC50 of test peptide) in assay [2] was found to be 0.0039.

B9: HBV POL 518 … (peptide)
peptide: FTSAICSVV
modifications: not checked
As for B9, the binding affinity ratio (IC50 of standard peptide / IC50 of test peptide) in assay [4] came to 0.009.

B10: HBV ENV 237 11-mer peptide … (peptide)
peptide: WMCLRRFIIFL
modifications: not checked
On to B10, for which the binding affinity ratio (IC50 of standard peptide / IC50 of test peptide) in assay [2] worked out at 0.0019.

B11: HBV POL 45 peptide … (peptide)
peptide: NLNVSIPWT
modifications: not checked
On to B11, for which the binding affinity ratio (IC50 of standard peptide / IC50 of test peptide) (ratio to standard peptide) in assay [4] amounted to 0.0005.

B12: HBV ENV 246 … (peptide)
peptide: FLFILLLCL
modifications: not checked
In the case of B12, the binding affinity ratio (IC50 of standard peptide / IC50 of test peptide) in assay [4] stood at 0.0002.

B13: HBV POL 627 peptide … (peptide)
peptide: GLLGFAAPFT
modifications: not checked
On to B13, for which the binding affinity ratio (IC50 of standard peptide / IC50 of test peptide) in assay [4] stood at 0.0049.

B14: HBV ENV 260 peptide LLDYQGML (peptide)
peptide: LLDYQGML
modifications: not checked
As to B14, the binding affinity ratio (IC50 of standard peptide / IC50 of test peptide) in assay [2] came out at 0.0004.

B15: HBV POL 363 … (peptide)
peptide: FLVDKNPHNT
modifications: not checked
Take B15: the binding affinity ratio (IC50 of standard peptide / IC50 of test peptide) in assay [4] was determined as 0.0012.

B16: HBV POL 357 9-mer … (peptide)
peptide: RVTGGVFLV
modifications: not checked
As to B16, the binding affinity ratio (IC50 of standard peptide / IC50 of test peptide) in assay [4] (setting [5]) is 0.0041.

B17: HBV POL 581 9-mer … (peptide)
peptide: SLNFMGYVI
modifications: not checked
In the case of B17, in assay [4], the binding affinity ratio (IC50 of standard peptide / IC50 of test peptide) amounted to 0.0038.

B18: HBV NUC 28 peptide … (peptide)
peptide: WGMDIDPYK
modifications: not checked
For B18, in assay [3], the binding affinity ratio (IC50 of standard peptide / IC50 of test peptide) (ratio to standard peptide) was -0.0003.

B19: HBV X 15 peptide … (peptide)
peptide: VLCLRPVGA
modifications: not checked
As for B19, the binding affinity ratio (IC50 of standard peptide / IC50 of test peptide) in assay [4] (setting [5]) came to 0.0014.

B20: HBV X 92 peptide … (peptide)
peptide: VLHKRTLGL
modifications: not checked
Consider B20, for which the binding affinity ratio (IC50 of standard peptide / IC50 of test peptide) in assay [4] (setting [5]) was 0.0012.

B21: HBV POL 414 9-mer peptide … (peptide)
peptide: WLSLDVSAA
modifications: not checked
For B21, in assay [2], the binding affinity ratio (IC50 of standard peptide / IC50 of test peptide) is 0.0059.

B22: HBV ENV 348 peptide … (peptide)
peptide: GLSPTVWLSVI
modifications: not checked
Turning to B22, in assay [4], the binding affinity ratio (IC50 of standard peptide / IC50 of test peptide) came to 0.0036.

B23: HBV ENV 249 peptide … (peptide)
peptide: ILLLCLIFL
modifications: not checked
In the case of B23, the binding affinity ratio (IC50 of standard peptide / IC50 of test peptide) in assay [4] came to 0.0015.

B24: HBV POL 641 peptide … (peptide)
peptide: PALMPLYACI
modifications: not checked
As to B24, the binding affinity ratio (IC50 of standard peptide / IC50 of test peptide) in assay [1] is 0.0001.

B25: HBV POL 496 peptide … (peptide)
peptide: PIILGFRKI
modifications: not checked
On to B25, for which, in assay [1], the binding affinity ratio (IC50 of standard peptide / IC50 of test peptide) was 0.0001.

B26: HBV ENV 348 peptide GLSPTVWL (peptide)
peptide: GLSPTVWL
modifications: not checked
B26: in assay [4], the binding affinity ratio (IC50 of standard peptide / IC50 of test peptide) is 0.0036.

B27: HBV X 132 … (peptide)
peptide: FVLGGCRHKL
modifications: not checked
On to B27, for which the binding affinity ratio (IC50 of standard peptide / IC50 of test peptide) in assay [4] was found to be 0.003.

B28: HBV POL 625 peptide … (peptide)
peptide: IVGLLGFAA
modifications: not checked
On to B28, for which the binding affinity ratio (IC50 of standard peptide / IC50 of test peptide) in assay [4] was determined as 0.0009.

B29: HBV POL 42 peptide … (peptide)
peptide: NLGNLNVSI
modifications: not checked
With B29, the binding affinity ratio (IC50 of standard peptide / IC50 of test peptide) (ratio to standard peptide) in assay [4] is 0.0047.

B30: HBV POL 752 peptide … (peptide)
peptide: LLGCAANWI
modifications: not checked
For B30, the binding affinity ratio (IC50 of standard peptide / IC50 of test peptide) in assay [2] was determined as 0.0011.

B31: HBV ENV 330 peptide … (peptide)
peptide: SVRFSWLSLL
modifications: not checked
For the molecule B31, the binding affinity ratio (IC50 of standard peptide / IC50 of test peptide) in assay [4] was found to be 0.0004.

B32: HBV NUC 119 peptide LVSFGVWI (peptide)
peptide: LVSFGVWI
modifications: not checked
In the case of B32, in assay [4], the binding affinity ratio (IC50 of standard peptide / IC50 of test peptide) (ratio to standard peptide) was 0.0004.

B33: HBV X 133 peptide … (peptide)
peptide: VLGGCRHKL
modifications: not checked
Regarding B33, the binding affinity ratio (IC50 of standard peptide / IC50 of test peptide) in assay [4] was 0.0009.

B34: HBV NUC 138 peptide … (peptide)
peptide: PILSTLPET
modifications: not checked
B34: in assay [1], the binding affinity ratio (IC50 of standard peptide / IC50 of test peptide) was 0.0001.

B35: HBV ENV 243 FIIFLFIL (peptide)
peptide: FIIFLFIL
modifications: not checked
Consider B35, for which, in assay [4], the binding affinity ratio (IC50 of standard peptide / IC50 of test peptide) was found to be 0.0006.

B36: HBV ENV 10 peptide … (peptide)
peptide: PLGFFPDHQL
modifications: not checked
Take B36: the binding affinity ratio (IC50 of standard peptide / IC50 of test peptide) in assay [1] stood at 0.0002.

B37: HBV ENV 184 peptide LLTRILTI (peptide)
peptide: LLTRILTI
modifications: not checked
Regarding B37, the binding affinity ratio (IC50 of standard peptide / IC50 of test peptide) in assay [2] came to 0.0026.

B38: HBV POL 406 peptide … (peptide)
peptide: NLLSSNLSWL
modifications: not checked
Consider B38, for which the binding affinity ratio (IC50 of standard peptide / IC50 of test peptide) (ratio to standard peptide) in assay [4] was determined as 0.0016.

B39: HBV NUC 141 peptide … (peptide)
peptide: STLPETTVV
modifications: not checked
As to B39, in assay [4], the binding affinity ratio (IC50 of standard peptide / IC50 of test peptide) is 0.0019.

B40: HBV ENV 254 peptide LIFLLVLL (peptide)
peptide: LIFLLVLL
modifications: not checked
As for B40, in assay [2], the binding affinity ratio (IC50 of standard peptide / IC50 of test peptide) was 0.0025.

B41: … (HBV NUC 177) (peptide)
peptide: VVRRRGRSPR
modifications: not checked
B41: in assay [3], the binding affinity ratio (IC50 of standard peptide / IC50 of test peptide) stood at 0.0027.

B42: HBV POL 59 … (peptide)
peptide: FTGLYSSTV
modifications: not checked
Regarding B42, in assay [4], the binding affinity ratio (IC50 of standard peptide / IC50 of test peptide) was determined as 0.0005.
